Kd data for 3 molecules are collected here from publication PMC12313893, “Queuosine is incorporated into precursor tRNA before splicing”.

Data set [1] deals with T1, QTRT1 (catalytic subunit of TGT);QTRT2 (accessory subunit of TGT) (Mus musculus;Mus musculus, UniProt Q9JMA2;B8ZXI1 1-403;1-415, |). Description: MST; 100 uM 9-deazaguanine; apparent Kd (covalent trapping); MST: 20 mM HEPES pH 7.5, 75 mM NaCl, 1 mM MgCl2, 0.025% Tween 20, 2 mM DTT, 50 nM Cy5-tRNA, 25 C, +/-100 uM 9dG; EMSA: same buffer without Tween, 100 uM 9dG, 200 nM tRNA, 4 C, 6% native gel. The note with it: protein: recombinant;recombinant; copies: 1;1; label: Cy5-cytosine incorporated during transcription (MST, EMSA); tRNA cloverleaf with intron in anticodon loop.
T1 sequence (Q9JMA2 whole entry, chain 1 of 2): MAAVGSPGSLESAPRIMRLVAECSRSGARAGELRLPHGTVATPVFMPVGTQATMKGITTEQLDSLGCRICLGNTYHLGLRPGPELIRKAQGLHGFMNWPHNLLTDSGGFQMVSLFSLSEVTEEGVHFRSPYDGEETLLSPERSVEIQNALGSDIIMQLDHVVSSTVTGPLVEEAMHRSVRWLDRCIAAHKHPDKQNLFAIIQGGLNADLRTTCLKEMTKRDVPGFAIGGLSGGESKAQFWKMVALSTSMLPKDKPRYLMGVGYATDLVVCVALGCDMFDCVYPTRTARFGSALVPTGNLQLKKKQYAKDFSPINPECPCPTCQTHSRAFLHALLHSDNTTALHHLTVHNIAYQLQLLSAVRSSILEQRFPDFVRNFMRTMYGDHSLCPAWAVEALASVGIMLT
T1 sequence (B8ZXI1 whole entry, chain 2 of 2): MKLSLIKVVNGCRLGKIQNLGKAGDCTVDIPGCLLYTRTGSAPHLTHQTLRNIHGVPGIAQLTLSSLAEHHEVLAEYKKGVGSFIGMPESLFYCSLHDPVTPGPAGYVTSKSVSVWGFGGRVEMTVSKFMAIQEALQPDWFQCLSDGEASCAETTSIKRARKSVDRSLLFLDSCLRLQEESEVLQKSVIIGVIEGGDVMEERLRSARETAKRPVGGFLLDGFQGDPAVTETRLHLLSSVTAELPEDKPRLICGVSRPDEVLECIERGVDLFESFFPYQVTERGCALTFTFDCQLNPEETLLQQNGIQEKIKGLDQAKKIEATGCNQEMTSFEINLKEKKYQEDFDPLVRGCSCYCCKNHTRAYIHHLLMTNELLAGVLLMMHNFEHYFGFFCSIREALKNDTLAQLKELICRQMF

Data set [2] concerns the target T1, QTRT1 (catalytic subunit of TGT);QTRT2 …. Description: MST; no 9dG; MST: 20 mM HEPES pH 7.5, 75 mM NaCl, 1 mM MgCl2, 0.025% Tween 20, 2 mM DTT, 50 nM Cy5-tRNA, 25 C, +/-100 uM 9dG; EMSA: same buffer without Tween, 100 uM 9dG, 200 nM tRNA, 4 C, 6% native gel. The note with it: protein: recombinant;recombinant, copies: 1;1, label: Cy5-cytosine incorporated during transcription (MST, EMSA). (In general: A gel shift assay detects complexes by their altered migration in electrophoresis.)

Data set [3] shares this target. Description: MST; 9-deazaguanine; apparent Kd from peer review file; MST: 20 mM HEPES pH 7.5, 75 mM NaCl, 1 mM MgCl2, 0.025% Tween 20, 2 mM DTT, 50 nM Cy5-tRNA, 25 C, +/-100 uM 9dG; EMSA: same buffer without Tween, 100 uM 9dG, 200 nM tRNA, 4 C, 6% native gel. The note with it: protein: recombinant;recombinant; copies: 1;1; label: Cy5-cytosine incorporated during transcription (MST); tRNA cloverleaf with intron in anticodon loop.

Data set [4] shares this target. Description: MST; no 9dG; value from peer review file (main text calls 2-1 slightly weaker); MST: 20 mM HEPES pH 7.5, 75 mM NaCl, 1 mM MgCl2, 0.025% Tween 20, 2 mM DTT, 50 nM Cy5-tRNA, 25 C, +/-100 uM 9dG; EMSA: same buffer without Tween, 100 uM 9dG, 200 nM tRNA, 4 C, 6% native gel. The note with it: protein: recombinant;recombinant; copies: 1;1; label: Cy5-cytosine incorporated during transcription (MST); tRNA cloverleaf with intron in anticodon loop.

Data set [5] shares this target. Description: MST; 100 uM 9-deazaguanine; apparent Kd (covalent trapping; review file cites 1.2); MST: 20 mM HEPES pH 7.5, 75 mM NaCl, 1 mM MgCl2, 0.025% Tween 20, 2 mM DTT, 50 nM Cy5-tRNA, 25 C, +/-100 uM 9dG; EMSA: same buffer without Tween, 100 uM 9dG, 200 nM tRNA, 4 C, 6% native gel. The note with it: protein: recombinant;recombinant; copies: 1;1; label: Cy5-cytosine incorporated during transcription (MST, EMSA); tRNA cloverleaf.

B1: m_pre-tRNATyr 1-4 (intron-containing) (structured_RNA)
RNA: GGCCUUCGAUAGCUCAGUUGGUAGAGCGGAGGACUGUAGGUCAUUGUUCUAGAAAUCCUUAGGUCGCUGGUUCGAAUCCGGCUCGAAGGA
modifications: none (unmodified transcript)
Turning to B1, the Kd in data set [1] was 2.4 ± 0.2 µM; in data set [2] (tRNA cloverleaf with intron in anticodon loop), 6 ± 0.7 µM.

B2: m_pre-tRNATyr 2-1 (intron-containing) (structured_RNA)
RNA: GGCCUUCGAUAGCUCAGUUGGUAGAGCGGAGGACUGUAGUCAGUACAAUAUGGUAAUCCUUAGGUCGCUGGUUCGAUUCCGGCUCGAAGGA
modifications: none (unmodified transcript)
For B2, the Kd in data set [3] is 1.4 µM; in data set [4], 2.7 µM.

B3: m_tRNATyr (mature, GUA) (structured_RNA)
RNA: GGCCUUCGAUAGCUCAGUUGGUAGAGCGGAGGACUGUAGAUCCUUAGGUCGCUGGUUCGAAUCCGGCUCGAAGGA
modifications: none (unmodified transcript)
Take B3: the Kd in data set [2] (tRNA cloverleaf) was determined as 2.4 ± 0.7 µM; in data set [5] it was 1.1 ± 0.3 µM.
